Measurements taken from US20160346375A1 (MCMASTER UNIVERSITY, published 2016).

Target: T1, Cpn0803 (Chlamydia pneumoniae, UniProt Q9Z7A3 1-184)
T1 construct: Prey in an E. coli lysate
T1 sequence: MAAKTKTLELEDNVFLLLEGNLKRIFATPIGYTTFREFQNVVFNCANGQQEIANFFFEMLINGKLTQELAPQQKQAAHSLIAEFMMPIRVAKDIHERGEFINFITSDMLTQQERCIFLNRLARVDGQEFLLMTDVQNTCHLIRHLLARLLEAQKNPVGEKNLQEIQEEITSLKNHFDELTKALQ
Assay: GST pull-down from E. coli lysate, high salt wash

B1: GST-CopB1-255 (other)
chain: MSISSSSGPDNQKNIMSQVLTSTPQGVPQQDKLSGNETKQIQQTRQGKNTEMESDATIAGASGKDKTSSTTKTETAPQQGVAAGKESSESQKAGADTGVSGAAATTASNTATKIAMQTSIEEASKSMESTLESLQSLSAAQMKEVEAVVVAALSGKSSGSAKLETPELPKPGVTPRSEVIEIGLALAKAIQTLGEATKSALSNYASTQAQADQTNKLGLEKQAIKIDKEREEYQEMKAAEQKSKDLEGTMDTVNT
notes: Bait on glutathione-agarose beads; also called recombinant GST-CopB1-255; GST-CopB fragment; not shown: glutathione-S-transferase (GST) fusion tag
- binding result: no binding
